Laboratory results taken from article PMC9482650, “Quantitative fragmentomics allow affinity mapping of interactomes” (Nature Communications, 2022).

What was measured:
GIPC3, Q8TF64 = test: holdup assay; design: key: below the threshold = too weak to quantify, mostly under pKd 3.1 to 4; conditions: plain residues with an end cap or a label only (N-terminal biotin on a linker: (peg)3)
Q8IUC4 = test: holdup assay; design: key: below the threshold = too weak to quantify, mostly under pKd 3.1 to 4; conditions: plain residues with an end cap or a label only (N-terminal biotin on a linker: (peg)3)

Sequence of GIPC3, Q8TF64 (Q8TF64 107-202): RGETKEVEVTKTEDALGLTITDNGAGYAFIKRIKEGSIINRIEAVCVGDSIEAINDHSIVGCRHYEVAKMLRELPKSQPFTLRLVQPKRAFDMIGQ

Binder | pKd (GIPC3, Q8TF64) | pKd (Q8IUC4)
QQSMSSADSTQA [SARS-Cov2-N, P0DTC9] | below the threshold | below the threshold
RRRRSQSRESQC [HBV-HBc, P03193] | below the threshold | –
